Data on 6 molecules can be found in publication PMC3533786 (Molecular Microbiology, 2012).

In data set [1] the target is Rap1a (Resistance associated protein 1a), without its N-terminal signal peptide, His6-tagged (Serratia marcescens Db10). Nature of the data set: SEC.
Data set [2] deals with Rap2a (Resistance associated protein 2a), without its N-terminal signal peptide, His6-tagged (Serratia marcescens Db10). As to the kind of experiment: SEC. (In general: In gel filtration, larger molecules generally elute earlier.)
Data set [3] concerns the target Rap2b (Resistance associated protein 2b), without its N-terminal signal peptide, His6-tagged (Serratia marcescens Db10). As to the kind of experiment: SEC.
Data set [4] addresses Rap1a (Resistance associated protein 1a), without its N-terminal signal peptide, His6-tagged (Serratia marcescens Db10). As to the kind of experiment: SEC + other: quantitative in-gel SYPRO Orange staining.
Data set [5] concerns the target Tse1 (Pseudomonas aeruginosa) (UniProt Q9I2Q1). The settings on record: cited from earlier work.
Data set [6] concerns the molecule itself. Nature of the data set: SEC.

For the molecule “Rap1a (Resistance associated protein 1a), without its N-terminal signal peptide, His6-tagged (natural protein)”, in data set [1], the stoichiometry N (commonly the number of molecules, sites or subunits per partner or assembly) worked out at 2.

Regarding “Rap2a (Resistance associated protein 2a), without its N-terminal signal peptide, His6-tagged (natural protein)”, in data set [2], the stoichiometry N was determined as 2. “Rap2b (Resistance associated protein 2b), without its N-terminal signal peptide, His6-tagged (natural protein)”: in data set [3], the stoichiometry N was 2. Consider “Ssp1 (Secreted small protein 1), His6-tagged recombinant (natural protein)”, for which the stoichiometry N (Ssp1 per Rap1a (molar)) in data set [4] stood at 1. Tsi1 (from UniProt Q9I2Q0): the Kd (commonly the equilibrium constant for the complex coming apart) in data set [5] is 3 nM.

B1: Rap1b (Resistance associated protein 1b), without its N-terminal signal peptide, His6-tagged (natural protein)
chain: APIQDPVAFIKQMPYHQVVKELALSRCLAQVSDSDKAFSLDAARTANAMREWMPFDIESGDEKINVLIDKYKSRINEFHSETKDKSQGVTLNCLRLYHSPELDKLSRQLIAGNPDRTWNQDNAK
modifications: disulphide bond Cys54-Cys120
Consider B1, for which the “stoichiometry N” value in data set [6] is 2.
